Here are results for 2 molecules from PMC4615104 (Cell Cycle, 2015).

The assay concerns the target recombinant hMDM2 (human, UniProt Q00987 1-491). In words: ELISA. Background: ELISA stands for enzyme-linked immunosorbent assay.

Chain of recombinant hMDM2 (Q00987 whole entry): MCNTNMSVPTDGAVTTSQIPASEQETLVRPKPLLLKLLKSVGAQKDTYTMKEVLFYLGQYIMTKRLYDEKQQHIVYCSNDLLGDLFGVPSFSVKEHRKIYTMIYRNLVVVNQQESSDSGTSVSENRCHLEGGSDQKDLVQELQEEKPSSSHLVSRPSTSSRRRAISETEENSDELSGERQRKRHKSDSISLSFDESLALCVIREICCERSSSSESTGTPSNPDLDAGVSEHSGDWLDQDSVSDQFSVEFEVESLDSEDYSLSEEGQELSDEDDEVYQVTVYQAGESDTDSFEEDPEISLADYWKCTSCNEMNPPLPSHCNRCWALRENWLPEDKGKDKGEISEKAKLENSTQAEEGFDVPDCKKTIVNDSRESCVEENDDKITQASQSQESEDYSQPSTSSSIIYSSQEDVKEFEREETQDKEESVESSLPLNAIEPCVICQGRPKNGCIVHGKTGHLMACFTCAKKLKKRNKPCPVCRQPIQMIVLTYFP

B1: recombinant hMDMX^p60 (natural protein)
chain: MDIPSQDQLKQSAEESSTSRKRTTEDDIPTLPTSEHKCIHSREDEDLIENLAQDETSRLDLGFEEWDVAGLPWWFLGNLRSNYTPRSNGSTDLQTNQDVGTAIVSDTTDDLWFLNESVSEQLGVGIKVEAADTEQTSEEVGKVSDKKVIEVGKNDDLEDSKSLSDDTDVEVTSEDEWQCTECKKFNSPSKRYCFRCWALRKDWYSDCSKLTHSLSTSDITAIPEKENEGNDVPDCRRTISAPVVRPKDAYIKKENSKLFDPCNSVEFLDLAHSSESQETISSMGEQLDNLSEQRTDTENMEDCQNLLKPCSLCEKRPRDGNIIHGRTGHLVTCFHCARRLKKAGASCPICKKEIQLVIKVFIA
B1: the binding result is given as “binds”.

B2: recombinant hMDMX^FL (natural protein)
chain: MTSFSTSAQCSTSDSACRISPGQINQVRPKLPLLKILHAAGAQGEMFTVKEVMHYLGQYIMVKQLYDQQEQHMVYCGGDLLGELLGRQSFSVKDPSPLYDMLRKNLVTLATATTDAAQTLALAQDHSMDIPSQDQLKQSAEESSTSRKRTTEDDIPTLPTSEHKCIHSREDEDLIENLAQDETSRLDLGFEEWDVAGLPWWFLGNLRSNYTPRSNGSTDLQTNQDVGTAIVSDTTDDLWFLNESVSEQLGVGIKVEAADTEQTSEEVGKVSDKKVIEVGKNDDLEDSKSLSDDTDVEVTSEDEWQCTECKKFNSPSKRYCFRCWALRKDWYSDCSKLTHSLSTSDITAIPEKENEGNDVPDCRRTISAPVVRPKDAYIKKENSKLFDPCNSVEFLDLAHSSESQETISSMGEQLDNLSEQRTDTENMEDCQNLLKPCSLCEKRPRDGNIIHGRTGHLVTCFHCARRLKKAGASCPICKKEIQLVIKVFIA
As for B2, the binding result is recorded as “binds”.
